IC50 data for six molecules are collected here from patent publication CN116670173A (LAMCAP BIOTEST LTD, dated 2023).

Positions count from the first letter of the chain named.

The labels stand for the following.
B1: K2AC82 (bispecific antibody)
heavy: not shown
light 1: QSVLTQPPSVSAAPGQKVTISCSGSSSNIGYGLVSWYQQLPGTAPKLLIYGINKRPSGIPDRFSGSKSGTSATLGITGLQTGDEADYYCGTWDFSYRVDFGGGTKLTVL
light 2: not shown
notes: kappa-lambda body, human IgG1, one arm for each target; Common heavy chain and CD47 light chain are tied to the antibodies of the invention by embodiment language only; also called CD47xCEACAM5双特异性抗体K2AC82; CEACAM5xCD47双特异性抗体; not shown: lambda constant domain; probably S
B2: K2AC84 (bispecific antibody, human IgG1, kappa, lambda)
heavy: not shown
light 1: QSVLTQPPSVSAAPGQKVTISCSGSSSNIGIGLVSWYQQLPGTAPKLLIYNVNTRPSGIPDRFSGSKSGTSATLGITGLQTGDEADYYCGTWDFSYRVDFGGGTKLTVLGQPKAAPSVTLFPPSSEELQANKATLVCLISDFYPGAVTVAWKADSSPVKAGVETTTPSKQSNNKYAASSYLSLTPEQWKSHRSYSCQVTHEGSTVEKTVAPTECS
light 2: not shown
notes: kappa-lambda body, human IgG1; Common heavy chain and CD47 light chain tied by embodiment language only; also called CD47xCEACAM5双特异性抗体K2AC84; CEACAM5xCD47双特异性抗体
B3: K2AC22 (bispecific antibody, human IgG1, kappa, lambda)
heavy: not shown
light 1: B2 light 1 with G30A, I31N, L33I, N51F, V52D, T54L, R97G, V98I, D99V
light 2: not shown
notes: Comparator from WO2019234576; also called 现有技术的双特异性CEAxCD47抗体K2AC22
B4: K2AC91 (bispecific antibody, human IgG1, kappa, lambda)
heavy: not shown
light 1: B2 light 1 with N51T, T54N, W92F, R97G, V98I, D99V
light 2: not shown
notes: kappa-lambda body, human IgG1; Common heavy chain and CD47 light chain tied by embodiment language only; also called CD47xCEACAM5双特异性抗体K2AC91; CEACAM5xCD47双特异性抗体
B5: K2AC117 (bispecific antibody, human IgG1, kappa, lambda)
heavy: not shown
light 1: B2 light 1 with V52G, T54V
light 2: not shown
notes: kappa-lambda body, human IgG1; Common heavy chain and CD47 light chain tied by embodiment language only; also called CD47xCEACAM5双特异性抗体K2AC117; K2AC177 (as printed in some legends)
B6: K2AC100 (bispecific antibody, human IgG1, kappa, lambda)
heavy: not shown
light 1: B2 light 1 with I31Y, V52G, T54I
light 2: not shown
notes: kappa-lambda body, human IgG1; Common heavy chain and CD47 light chain tied by embodiment language only; also called CD47xCEACAM5双特异性抗体K2AC100; CEAxCD47双特异性抗体K2AC100

In this assay the target is T1, 在MKN-45细胞表面表达的人CD47 (human, UniProt Q08722 19-323).
T1 construct: whole, on cells; MKN-45 cells also carry CEACAM5; also called hCD47; CD47 on MKN-45 cells
T1 sequence (Q08722 19-323): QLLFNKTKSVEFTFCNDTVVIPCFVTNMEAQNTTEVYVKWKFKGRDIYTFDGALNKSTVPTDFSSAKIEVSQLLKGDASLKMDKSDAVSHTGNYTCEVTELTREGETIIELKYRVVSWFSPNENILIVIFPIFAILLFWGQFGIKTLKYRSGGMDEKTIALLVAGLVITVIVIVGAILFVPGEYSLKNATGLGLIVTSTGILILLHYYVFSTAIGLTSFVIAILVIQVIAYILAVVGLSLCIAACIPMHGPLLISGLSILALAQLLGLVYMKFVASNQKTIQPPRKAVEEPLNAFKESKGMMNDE
Put plainly: CD47/SIRPα blocking assay on MKN-45 cells, SIRPα-mouse Fc 50 ng/mL, imaging (CX5).
For B1, it took 0.07 nM to reach half-maximal inhibition (IC50).
In the case of B2 it was 0.04 nM; in that of B3, 1.2 nM.
In the case of B4 it was 0.05 nM; in that of B5, 0.08 nM.
For the molecule B6, inhibition was half-maximal at 0.09 nM (IC50).
